Experimental data as given in paper PMC3040172, “The Impact of the C-Terminal Domain on the Interaction of Human DNA Topoisomerase II α and β with DNA”.

Assays:
Conditions in all cases: protein: recombinant; chain copies: 2; blunt; as printed S2 is not the exact complement of S1: 2 mismatches at S1 positions 34-35 (possible typo)
[1] = target: T1, DNA topoisomerase II beta, full length (human, UniProt Q02880 1-1626); test: fluorescence anisotropy; 50 mM Tris pH 8, 5% glycerol, 50 mM KCl, 1% Triton X-100, 100 µg/ml acetylated BSA, 20°C; HEX oligo printed as 1 µM; 10 mM MgCl2 or CaCl2 where described
[2] = target: Truncated topoisomerase II alpha (C-terminal domain deleted) (human, UniProt P11388 29-1242); test: as above
[3] = target: Truncated topoisomerase II beta (C-terminal domain deleted) (human, UniProt Q02880 51-1268); test: as above
[4] = target: T2, DNA topoisomerase II alpha, full length (human, UniProt P11388 1-1531); test: as above
[5] = target: T1, DNA topoisomerase II beta, full length; test: fluorescence anisotropy; no metal; 50 mM Tris pH 8, 5% glycerol, 50 mM KCl, 1% Triton X-100, 100 µg/ml acetylated BSA, 20°C; HEX oligo printed as 1 µM; 10 mM MgCl2 or CaCl2 where described
[6] = target: T2, DNA topoisomerase II alpha, full length; test: as above
[7] = target: T1, DNA topoisomerase II beta, full length; test: fluorescence anisotropy; 10 mM CaCl2; 50 mM Tris pH 8, 5% glycerol, 50 mM KCl, 1% Triton X-100, 100 µg/ml acetylated BSA, 20°C; HEX oligo printed as 1 µM; 10 mM MgCl2 or CaCl2 where described
[8] = target: T2, DNA topoisomerase II alpha, full length; test: as above
[9] = target: T1, DNA topoisomerase II beta, full length; test: fluorescence anisotropy; 10 mM MgCl2; 50 mM Tris pH 8, 5% glycerol, 50 mM KCl, 1% Triton X-100, 100 µg/ml acetylated BSA, 20°C; HEX oligo printed as 1 µM; 10 mM MgCl2 or CaCl2 where described
[10] = target: T2, DNA topoisomerase II alpha, full length; test: as above

T2 sequence (P11388 whole entry): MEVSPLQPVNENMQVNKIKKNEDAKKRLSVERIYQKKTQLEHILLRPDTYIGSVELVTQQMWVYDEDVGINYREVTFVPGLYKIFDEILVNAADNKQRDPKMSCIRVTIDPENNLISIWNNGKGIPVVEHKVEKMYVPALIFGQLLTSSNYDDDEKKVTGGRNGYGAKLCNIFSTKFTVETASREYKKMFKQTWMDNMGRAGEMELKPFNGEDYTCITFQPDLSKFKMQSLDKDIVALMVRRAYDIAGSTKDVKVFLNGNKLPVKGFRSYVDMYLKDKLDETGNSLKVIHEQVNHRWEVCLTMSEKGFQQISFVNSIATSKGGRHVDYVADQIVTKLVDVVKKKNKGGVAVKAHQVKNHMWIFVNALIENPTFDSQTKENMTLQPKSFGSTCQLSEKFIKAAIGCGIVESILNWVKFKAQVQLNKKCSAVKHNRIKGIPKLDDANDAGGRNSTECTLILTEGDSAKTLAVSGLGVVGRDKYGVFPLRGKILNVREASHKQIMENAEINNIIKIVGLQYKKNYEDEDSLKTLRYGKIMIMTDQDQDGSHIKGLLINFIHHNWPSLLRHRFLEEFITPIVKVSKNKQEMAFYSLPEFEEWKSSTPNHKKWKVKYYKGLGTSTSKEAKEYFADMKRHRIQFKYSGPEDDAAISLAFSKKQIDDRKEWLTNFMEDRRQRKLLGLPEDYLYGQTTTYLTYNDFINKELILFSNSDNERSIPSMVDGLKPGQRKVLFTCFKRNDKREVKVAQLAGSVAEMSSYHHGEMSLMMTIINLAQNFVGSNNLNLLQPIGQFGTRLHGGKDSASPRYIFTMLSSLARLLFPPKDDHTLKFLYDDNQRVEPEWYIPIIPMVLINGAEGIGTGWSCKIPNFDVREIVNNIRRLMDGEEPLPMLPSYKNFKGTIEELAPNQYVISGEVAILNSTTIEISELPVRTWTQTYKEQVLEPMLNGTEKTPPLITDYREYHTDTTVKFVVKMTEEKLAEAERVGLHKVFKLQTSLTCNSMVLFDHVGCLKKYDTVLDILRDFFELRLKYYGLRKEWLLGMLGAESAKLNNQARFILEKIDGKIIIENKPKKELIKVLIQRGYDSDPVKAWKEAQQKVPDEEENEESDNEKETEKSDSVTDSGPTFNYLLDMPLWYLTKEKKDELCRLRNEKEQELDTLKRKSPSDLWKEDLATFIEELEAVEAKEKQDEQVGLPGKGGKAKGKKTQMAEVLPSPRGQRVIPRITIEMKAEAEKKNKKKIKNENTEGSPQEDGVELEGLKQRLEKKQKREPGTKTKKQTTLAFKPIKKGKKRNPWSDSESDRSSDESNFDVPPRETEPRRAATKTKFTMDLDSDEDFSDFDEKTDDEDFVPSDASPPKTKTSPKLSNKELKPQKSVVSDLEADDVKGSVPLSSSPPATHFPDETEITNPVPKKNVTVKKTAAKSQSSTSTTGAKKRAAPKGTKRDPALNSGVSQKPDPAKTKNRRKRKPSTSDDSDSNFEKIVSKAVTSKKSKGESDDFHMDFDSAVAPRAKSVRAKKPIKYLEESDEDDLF
T1 sequence (Q02880 whole entry, the tested form may be a part): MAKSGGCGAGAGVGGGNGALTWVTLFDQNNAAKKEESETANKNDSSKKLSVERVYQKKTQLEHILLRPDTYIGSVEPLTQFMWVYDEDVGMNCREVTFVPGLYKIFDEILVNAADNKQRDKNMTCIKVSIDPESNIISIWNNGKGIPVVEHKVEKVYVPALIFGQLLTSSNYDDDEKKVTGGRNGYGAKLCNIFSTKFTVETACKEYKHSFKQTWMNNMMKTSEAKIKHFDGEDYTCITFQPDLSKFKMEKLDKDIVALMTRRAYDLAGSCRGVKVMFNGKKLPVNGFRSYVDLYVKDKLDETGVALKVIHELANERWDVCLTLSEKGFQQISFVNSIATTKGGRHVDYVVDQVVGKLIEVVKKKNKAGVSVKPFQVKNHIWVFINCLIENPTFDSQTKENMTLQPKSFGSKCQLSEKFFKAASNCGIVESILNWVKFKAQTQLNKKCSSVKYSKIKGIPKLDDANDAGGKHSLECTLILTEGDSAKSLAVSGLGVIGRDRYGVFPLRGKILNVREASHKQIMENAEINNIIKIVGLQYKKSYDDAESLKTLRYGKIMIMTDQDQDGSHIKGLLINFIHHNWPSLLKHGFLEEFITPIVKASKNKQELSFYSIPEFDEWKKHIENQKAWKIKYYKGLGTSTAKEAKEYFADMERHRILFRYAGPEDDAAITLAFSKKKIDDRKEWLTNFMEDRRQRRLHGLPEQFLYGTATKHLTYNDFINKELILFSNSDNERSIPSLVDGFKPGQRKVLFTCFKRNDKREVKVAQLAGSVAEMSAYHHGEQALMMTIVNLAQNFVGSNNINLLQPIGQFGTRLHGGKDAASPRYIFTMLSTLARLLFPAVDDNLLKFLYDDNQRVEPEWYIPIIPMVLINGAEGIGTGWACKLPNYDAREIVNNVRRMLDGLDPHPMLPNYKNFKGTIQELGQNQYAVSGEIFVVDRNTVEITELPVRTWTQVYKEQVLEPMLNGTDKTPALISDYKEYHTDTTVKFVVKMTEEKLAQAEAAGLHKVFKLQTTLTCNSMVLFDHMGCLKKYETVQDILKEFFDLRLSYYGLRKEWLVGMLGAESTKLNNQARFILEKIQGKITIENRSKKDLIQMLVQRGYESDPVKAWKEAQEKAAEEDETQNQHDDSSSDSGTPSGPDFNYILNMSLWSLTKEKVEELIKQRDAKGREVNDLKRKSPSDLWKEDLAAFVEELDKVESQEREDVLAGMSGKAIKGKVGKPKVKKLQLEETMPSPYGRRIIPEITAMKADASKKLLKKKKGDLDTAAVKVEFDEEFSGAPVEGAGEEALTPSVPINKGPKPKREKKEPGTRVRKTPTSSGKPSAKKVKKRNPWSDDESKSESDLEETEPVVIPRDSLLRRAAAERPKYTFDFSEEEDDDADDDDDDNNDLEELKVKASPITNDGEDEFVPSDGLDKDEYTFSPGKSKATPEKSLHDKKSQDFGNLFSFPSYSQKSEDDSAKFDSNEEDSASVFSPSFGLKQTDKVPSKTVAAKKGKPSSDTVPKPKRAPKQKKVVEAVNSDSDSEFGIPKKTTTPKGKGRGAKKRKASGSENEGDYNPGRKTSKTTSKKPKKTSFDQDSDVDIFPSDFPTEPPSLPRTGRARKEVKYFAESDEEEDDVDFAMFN
Chain of Truncated topoisomerase II alpha (C-terminal domain deleted) (P11388 29-1242, stated change not applied): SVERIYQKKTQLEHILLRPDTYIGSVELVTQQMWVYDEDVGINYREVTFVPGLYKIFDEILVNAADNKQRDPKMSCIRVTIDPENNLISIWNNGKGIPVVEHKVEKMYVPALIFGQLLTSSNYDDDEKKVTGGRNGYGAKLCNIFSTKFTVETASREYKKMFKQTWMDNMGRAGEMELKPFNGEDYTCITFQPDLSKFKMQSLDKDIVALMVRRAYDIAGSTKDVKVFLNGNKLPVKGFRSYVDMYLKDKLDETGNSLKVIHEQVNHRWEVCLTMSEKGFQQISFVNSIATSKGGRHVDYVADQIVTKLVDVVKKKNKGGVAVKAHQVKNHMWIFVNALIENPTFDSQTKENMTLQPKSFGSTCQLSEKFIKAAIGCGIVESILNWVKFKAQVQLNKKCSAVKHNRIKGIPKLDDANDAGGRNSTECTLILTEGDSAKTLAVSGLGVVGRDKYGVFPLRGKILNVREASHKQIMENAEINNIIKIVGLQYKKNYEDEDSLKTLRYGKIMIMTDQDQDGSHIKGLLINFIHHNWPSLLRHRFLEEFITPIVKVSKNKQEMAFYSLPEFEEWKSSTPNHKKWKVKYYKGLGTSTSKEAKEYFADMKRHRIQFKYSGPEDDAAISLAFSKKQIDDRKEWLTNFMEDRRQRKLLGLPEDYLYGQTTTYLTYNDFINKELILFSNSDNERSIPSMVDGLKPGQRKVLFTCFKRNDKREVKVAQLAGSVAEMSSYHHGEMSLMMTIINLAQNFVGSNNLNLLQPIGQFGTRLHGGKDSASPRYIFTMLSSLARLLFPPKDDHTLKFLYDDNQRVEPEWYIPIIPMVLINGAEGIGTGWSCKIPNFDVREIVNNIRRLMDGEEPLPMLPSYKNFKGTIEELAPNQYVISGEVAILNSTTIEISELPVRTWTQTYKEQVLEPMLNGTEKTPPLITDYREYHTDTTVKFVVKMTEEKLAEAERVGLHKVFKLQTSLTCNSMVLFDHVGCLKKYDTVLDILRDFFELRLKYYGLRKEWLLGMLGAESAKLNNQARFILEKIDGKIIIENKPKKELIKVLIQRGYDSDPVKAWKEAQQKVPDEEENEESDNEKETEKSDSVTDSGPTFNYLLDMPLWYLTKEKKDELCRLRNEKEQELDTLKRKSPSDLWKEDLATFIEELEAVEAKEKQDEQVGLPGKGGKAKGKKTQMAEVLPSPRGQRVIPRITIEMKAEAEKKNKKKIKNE

B1: 40 bp oligo AB (dsDNA)
DNA 1: CGCAATCTGACAATGCGCTCATCGTCATCCTCGCGACGCG
DNA 2: CGCGTGCCGAGGATGACGATGAGCGCATTGTCAGATTGCG
B1 was tested, and the Kd [1] was 72.9 nM, the Kd [2] was 116 nM and the Kd [3] was 17.8 nM. For the same binder, the Kd [4] was 189 nM, the Kd [5] was 46.4 nM and the Kd [6] was 160 nM. It also gave a Kd [7] of 84.3 nM, a Kd [8] of 178 nM and a Kd [9] of 55.4 nM. It also gave a Kd [10] of 150 nM.
